Source: the RNAGym collection of RNA variant scans (doi:10.1073/pnas.2313332121)

B1: TPR t1 (parent)
chain: GACCAAUCUGCCCUCAGAGCUCGAGAACAUCUUCGGAUGCAGAGGAGGCAGGCUUCGGUGGCGCGAUAGCGCCAACGUCCUCAACCUCCAAUGCAUCCCACCACAUGAUGAUGCCUGAAGAGCCUUGGUUUUUUG

Variants of: B1
Experiment: polymerase ribozyme fitness, log enrichment relative to wild type (log ratio); higher = more active; in vitro selection for triplet polymerase activity
Procedure, shortened: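 Fitness measures genotype enrichment against wild-type enrichment on a logarithmic scale, with inverse-variance-weighted averaging of replicates. The logarithm is base 2, and genotypes were kept only with ≥10 input reads and ≥1 read per output in Illumina sequencing. The sequenced libraries came from one triplicate in vitro selection round, including frozen incubation at −7 °C, of PCR-built, transcribed mutant libraries of each subunit of a heterodimeric triplet polymerase ribozyme.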
With GACCAAUCUGCCCUCAGAGCUCGAGAACAUCUUCGGAGGCAGGGGAGGCAGGCUUCGGUGGCGCGAUAGCGCCAACGUCCUCAACCUCCAAUGCAUCCCACCACAUGAUGAUGCCUGAAGAGCCUUGGUUUUUUG [U38G A43G] the “polymerase ribozyme fitness (log ratio)” value was -2.91. With GACCAAUCUGCCCUCAGAGCUCGAGAACAUCUUCGGAAGCAGAGUAGGCAGGCUUCUGUGGCGCGAUAGCGCCAACGUCCUCAACCUCCAAUGCAUCCCACCACAUGAUGAUGCCUGAAGAGCCUUGGUUUUUUG [U38A G45U G57U] the “polymerase ribozyme fitness (log ratio)” value was -2.52. For GACCAAUCUGCCCUCAGAGCUCGAGAACAUCUUCGGAAGCAGAGGAGCCAGGCUUCGGUGGCCCGAUAGCGCCAACGUCCUCAAUCUCCAAUGCAUCCCACCACAUGAUAAUGCCUGAAGAGCCUUGGUUUUUUG [U38A G48C G63C C85U G110A], the “polymerase ribozyme fitness (log ratio)” value was -5.19. For GACCAAUCUGCCCUCAGAGCUCGAGAACAUCUUCGGUUGCAGAGGAGGCAGGCUUCGGUGGCGCGAUAGCGCCAACGUCCUCAACCUCCAAUGCAUCCCACCACAUGAUGAAGCCUGAAGAGCCCUGGUUUUUUG [A37U U112A U125C], the “polymerase ribozyme fitness (log ratio)” value was 1.04. In the case of GACCAAUCUGCCCUCAGAGCUCGAGAACAUCUUCGGACGCAGAGGAGGCAGGCUUCGGUGGCGCGAUAGCGCCAACGUCCUCAACCUCCCAUGCAUCCCACCACAUGAUGAUGCCUGAAGAGCCUUGGUUUUUUG [U38C A90C], the “polymerase ribozyme fitness (log ratio)” value is reported as -1.49. With GACCAAUCUGCCCUCAGAGCUCGAGAACAUCUUCGGACGCAGAGGAGGCAGGCUUCGGUGGCGCGAUAGCGCCAACGUCCUCAACCUCCAAUGCAUCCCACCACAUGACGAUGCCUGAAGAGCCUUGGUUUUUUG [U38C U109C] the “polymerase ribozyme fitness (log ratio)” value was -4.71. In the case of GACCAAUCUGCCCUCAGAGCUCGAGAACAUCUUCGGUUGCAGAGGAGGCAGGCUUCGGUGGCGCGAUAGCGCCAACGUCCUCAACCUCCAAUGCAUCCCACCACAUGAUGAUGCCUGAAGAGCCUUGGUUCUUUG [A37U U131C], the “polymerase ribozyme fitness (log ratio)” value is reported as -0.648. With GACCAAUCUGCCCUCAGAGCUCGAGAACAUCUUCGGAAGCAGAGGAGGCAGGCUUCGGUGGCGCGAUAGCGCCAACGUCCUCAACCUCCAAUGCAUCCCACCACAUGAUGAUGCCUGAAGAGCCUUGGUUUUAUG [U38A U133A] the “polymerase ribozyme fitness (log ratio)” value was -0.815. For GACCAAUCUGCCCUCAGAGCUCGAGAACAUCUUCGGACGCAAAGGAGGCAGGCUUCGGUGGCGCGAUAGCGCCAACGUCCUCAACCUCCAAUGCAUCCCACCACAUGAUGAUGCCUGUAGAACCUUGGUUUUUUG [U38C G42A A118U G122A], the “polymerase ribozyme fitness (log ratio)” value was -3.31. In the case of GACCAAUCUGCCCUCAGAGCUCGAGAACAUCUUCGGAAGCAGAUGAGGCAGUCUUCGGUGGCGCGAUAGCGGCAACGUCCUCAACCUCCAAUGCAUCCCACCACAUGAUGAUGCCUGAAGAGCCUUGGUUUUUUG [U38A G44U G52U C72G], the “polymerase ribozyme fitness (log ratio)” value is reported as -4.73. In the case of GACCAAUCUGCCCUCAGAGCUCGAGAACAUCUUCGGAAGCCGAGGAGGCAGGCUUCGGUGGCGCGAUAGCGUCAACGUCCUCAACCUCCAAUGCAUCCCACCACAUGAUGAUGCCUGAAGAGCCUUUGUUUUUUG [U38A A41C C72U G127U], the “polymerase ribozyme fitness (log ratio)” value is reported as -4.53. For GACCAAUCUGCCCUCAGAGCUCGAGAACAUCUUCGGAAGCAGAGGAGGCAGGCUUCGGUGGCGCGAUAACGCCAACGUCCUCAACCUCCAAUGCAUCCCACCACAUGAUGAUGCCUGAAGAGCCUUGGUUUUUUG [U38A G69A], the “polymerase ribozyme fitness (log ratio)” value was -4.51. For GACCAAUCUGCCCUCAGAGCUCGAGAACAUCUUCGGAAGCAGAGGAGGCAGGCGUCGGUGGCGCGAUAGCGCCAACGUCCUCAACCUCCAAUGCAUCCCACCACAUGAUGAUGCCUGAAGAGCCUUGGUUUUUUG [U38A U54G], the “polymerase ribozyme fitness (log ratio)” value was -0.848. For GACCAAUCUGCCCUCAGAGCUCGAGAACAUCUUCGGUUGCAGAGGAGGCAGGCUUCGGUGGCGCGAUAGCGCCAACGUCCACAACCUCCAAUGCAUCCCAACACAUGAUUAUGCCUGAAGAGCCUUGGUUUUUUG [A37U U81A C101A G110U], the “polymerase ribozyme fitness (log ratio)” value was -5.35. For GACCAAUCUGCCCUCAGAGCUCGAGAACAUCUUCGGACGCAGAGGAGGCAGGCUUCAGUGGCGCGAUAUCGCCAACGUCCUCAACCUCCAAUGCAACCCACCACAUGAUGAUGCCUGAAGAGCCUUGGUUUUUUG [U38C G57A G69U U96A], the “polymerase ribozyme fitness (log ratio)” value was -3.58. With GACCAAUCUGCCCUCAGAGCUCGAGAACAUCUUCGGAAGCAGAGGAGGCAGGCUUCGGUGGCGCGAUAGCGCCAACGUCCUCAACCUCCAAUGCAUCCCACCACAUGAUGAUCCCUGAAGAGCCUUGGUUUUUUG [U38A G113C] the “polymerase ribozyme fitness (log ratio)” value was -2.81. In the case of GACCAAUCUGCCCUCAGAGCUCGAGAACAUCUUCGGACGCAGAGAAGGCAGGCUUCGGUGGCGCGAUAGCGCCAACGUCCUCAACCUCCAAUGCAUCCCACCACAUGAUGAUCCCUGAAGAGCCCUGGUUUUUUG [U38C G45A G113C U125C], the “polymerase ribozyme fitness (log ratio)” value is reported as -3.38. With GACCAAUCUGCCCUCAGAGCUCGAGAACAUCUUCGGUUGCAGAGGAGGCAGGCUUCGGGGGCGCGAUAGCGCCAACGUCCUCAACCUCCAAUGCAUCCCACCACAUGAUGAUGCCUGAAGAGCGUUGGUUUUUUG [A37U U59G C124G] the “polymerase ribozyme fitness (log ratio)” value was 1.68. In the case of GACCAAUCUGCCCUCAGAGCUCGAGAACAUCUUCGGACGCAGAGGAGGCAGGCUUCUGUGGCGCGAUAGCGCCAACGUCCUCAACCUCCAAUGCAUCCCACCACAUGAUGAUGCCUCAAGAGCCUUGGUUUUUUG [U38C G57U G117C], the “polymerase ribozyme fitness (log ratio)” value is reported as -5.11. In the case of GACCAAUCUGCCCUCAGAGCUCGAGAACAUCUUCGGUUGCAGAGGAGGCAGGCUUCGGCGGCGCGAUAGUGCCAACGUCCUCAACCUCCAAUGCAUCCCACCACAUGAUGAUGCCUGAAGAGCCUUGGUUUUUUG [A37U U59C C70U], the “polymerase ribozyme fitness (log ratio)” value is reported as -1.46. In the case of GACCAAUCUGCCCUCAGAGCUCGAGAACAUCUUCGGACGCAGAGGAUGCAGGCUUCGGUGCCGCGAUAGCGCCAACGUCCUCAACCUCCAAUGCCUCCCACCACAUGAUGAUGCCUGAAGAGCCUUGGUUUUUUG [U38C G47U G61C A95C], the “polymerase ribozyme fitness (log ratio)” value is reported as -3.89.
